{"source": "patent US20170029484A1", "about": "(published 2017)", "binders": {"B1": {"name": "DESB (TCR, V domains shown)", "Valpha": "AQSVTQPDARVTVSEGASLQLRCKYSYSGTPYLFWYAQYPRQGLQLLLKYYSGDPVVQGVNGFEAEFSKSNSSFHLRKASVHWSDSAVYFCVLRYGGNNKLTFGQGTVLSVIP", "Vbeta": "EAAVTQSPRSKVAVTGGKVTLSCHQTNNHDYMYWYRQDTGHGLRLIHYSYVADSTEKGDIPDGYKASRPSQENFSLILELASLSQTAVYFCASRYRDTQYFGPGTRLLVL"}, "B2": {"name": "βCATA (TCR, V domains shown)", "Valpha": "GQQVQQSPASLVLQEGENAELQCNFSSTATRLQWFYQHPGGRLVSLFYNPSGTKHTGRLTSTTVTNERRSSLHISSSQTTDSGTYFCAIPPGTGSKLSFGKGAKLTVSP", "Vbeta": "NTKITQSPRYLILGRANKSLECEQHLGHNAMYWYKQSAEKPPELMFLYNLKQLIRNETVPSRFIPECPDSSKLLLHISAVDPEDSAVYFCASSQGQKQYFGPGTRLTVL"}, "B3": {"name": "IRS-2A (TCR, V domains shown)", "Valpha": "AQSVTQPDARVTVSEGASLQLRCKYSYSGTPYLFWYVQYPRQGLQLLLKYYSGDPVVQGVNGFEAEFIKSNSSFHLRKASVHWSDSAVYFCAVSEGADRLTFGKGTQLIIQP", "Vbeta": "EAGVTQSPRYAVLQEGQAVSFWCDPISGHDTLYWYQQPRDQGPQLLVYFRDEAVIDNSQLPSDRFSAVRPKGTNSTLKIQSAKQGDTATYLCASSLLDSSYEQYFGPGTRLTVL"}, "B4": {"name": "DESA (TCR, V domains shown)", "Valpha": "AQSVTQPDARATVSEGASLRLRCKYSYSGTPYLFWYVQYPRQGLQLLLKYYSGDPVVQGVNGFEAEFSKSNSSFHLRKASVHWSDSAVYFCVLSYSNNRIFFGDGTQLVMKP", "Vbeta": "DSGVVQSPRHIIKEKGGRSVLTCIPISGHSNVVWYQQTLGKELKFLIQHYEKVERDKGFLPSRFSVQQFDDYHSEMNMSALELEDSAMYFCASSLGGGEVFFGKGTRLTVV"}, "B5": {"name": "IRS-2B (TCR, V domains shown)", "Valpha": "AQSVTQPDARVTVSEGASLQLRCKYSYSGTPYLFWYVQYPRQGLQLLLKYYSGDPVVQGVNGFEAEFIKSNSSFHLRKASVHWSDSAVYFCAVSAGSGGKLTLGAGTRLQVNL", "Vbeta": "EAAVTQSPRSKVAVTGGKVTLSCHQANNHDYMYWYRQDTGHGLRLIHYSYVADSTEKGDIPDGYKASRPSQENFSLILELASLSQTAVYFCASSDRDNYAEQFFGPGTRLTVL"}, "B6": {"name": "the CDC25b TCR (TCR, V domains shown)", "Valpha": "GEQVEQRPPHLSVREGDSAVIICTYTDPNSYYFFWYKQEPGAGLQLLMKVFSSTEINEGQGFTVLLNKKDQQLSLNLTAAHPGDSAVYFCAVKPGGYKVVFGSGTRLLVSP", "Vbeta": "EAAVTQSPRNKVAVTGGKVTLSCNQTNNHNNMYWYRQDTGHGLRLIHYSYGAGSTEKGDIPDGYKASRPSQENFSLILELATPSQTSVYFCASGGDTQYFGPGTRLLVL"}}, "key": {"[1]": {"biological_target": "T1, desmuslin/synemin peptide on HLA-A*02:01 (human)", "T1 peptide": "RTF[pS]PTYGL", "test": "cytokine release"}, "[2]": {"biological_target": "T2, β-catenin peptide on HLA-A*02:01 (human)", "T2 peptide": "YLD[pS]GIHSGA", "test": "cytokine release"}, "[3]": {"biological_target": "T3, CDC25b (M-phase inducer phosphatase 2) peptide on HLA-A*02:01 (human)", "T3 peptide": "GLLG[pS]PVRA", "test": "killing"}, "[4]": {"biological_target": "T4, insulin receptor substrate 2 (IRS-2) peptide on HLA-A*02:01 (human)", "T4 peptide": "RVA[pS]PTSGV", "test": "cytokine release"}, "[5]": {"biological_target": "T4, insulin receptor substrate 2 (IRS-2) …", "test": "killing"}, "[6]": {"biological_target": "T2, β-catenin peptide on HLA-A*02:01", "test": "killing"}}, "note": "Where no end group is shown, it is not given here. [ ]: non-standard residue; d: D form. pS = N[C@@H](COP(=O)(O)O)C(=O)O", "data": [{"binder": "B1", "values": [{"measurement": "binding result", "setting": "[1]", "result": "recognises"}]}, {"binder": "B2", "values": [{"measurement": "binding result", "setting": "[2]", "result": "recognises"}]}, {"binder": "B3", "values": [{"measurement": "binding result", "setting": "[3]", "result": "no recognition"}]}, {"binder": "B4", "values": [{"measurement": "binding result", "setting": "[1]", "result": "recognises"}]}, {"binder": "B5", "values": [{"measurement": "binding result", "setting": "[4]", "result": "recognises"}]}, {"binder": "B6", "values": [{"measurement": "binding result", "setting": "[5]", "result": "no recognition"}, {"measurement": "binding result", "setting": "[6]", "result": "no recognition"}]}]}
